US20250339531A1, “DUX4 POLYPEPTIDES AND NUCLEIC ACIDS FOR TREATING INFLAMMATORY AND AUTOIMMUNE CONDITIONS” (Fred Hutchinson Cancer Center, priority 2021, published 2025)

Tested on: proteins that co-immunoprecipitated with DUX4-CTD constructs expressed in MB135 myoblasts
Experiment: LC-MS of proteins co-immunoprecipitated with DUX4-CTD (Table 1) and western validation
Format: binding, human
Design: key to 4. mL1dL2 + Dox + IFNG / 4. + IFNG mix / 4. longCTD + Dox + IFNG / 3. + IFNg + Dox longCTD / 3. + Dox longCTD / 3. + IFNG longCTD: peptide-spectrum matches (PSMs) per protein
Conditions: kind of count not given; for 4. + IFNG mix: LC-MS value per protein co-immunoprecipitated from MB135 myoblasts, + IFNG mix sample (no Dox); for 4. mL1dL2 + Dox + IFNG: LC-MS value per protein co-immunoprecipitated with DUX4-CTD construct mL1dL2 in MB135 myoblasts
Excerpt: As an unbiased method to identify proteins that interact with the C-terminal region of DUX4, liquid chromatography mass spectroscopy (LC-MS) was used to identify proteins that co-immunoprecipitated with DUX4-CTD constructs expressed in MB135 myoblasts. In the first experiment, MB135iDUX4-CTD cells were used, either untreated, treated with doxycycline alone, or with both doxycycline and IFNG. In the second experiment, MB135iDUX4-CTD and MB135iDUX4mL1dL2 cells were used, both treated with doxycycline and IFNG, compared to these two cell lines untreated and combined as a control. Proteins with a minimum of 2 peptide spectrum matches (PSMs) in at least one sample that were identified in both experiments were assigned to one of ten categories (see Methods) to separate candidate interactors from other categories that might be co-purified because of obligate interactions (e.g., proteasome or ribosome) or might be less likely to be physiologically relevant (e.g., cytoskeletal proteins). Candidate interactors were then ranked based on the total PSMs for that protein across all samples.
Centrifugation at 2500 rcf at 4° C. for 5 min pelleted the nuclei, supernatant was discarded, and nuclei resuspended in 1 mL IP buffer pH 7.4 (25 mM Tris-HCl pH 7.5, 175 mM NaCl, 1 mM EDTA, 0.2% NP-40, 5% glycerol) and incubated for 1 hour at 4° C. with rotation then spun at 21000 rcf for 10 minutes at 4° C. to pellet insoluble debris. Protein concentration was determined using the Pierce BCA Protein Assay Kit (ThermoFisher, 23225). An equivalent amount of protein per sample was pre-cleared with Dynabeads Protein G (Invitrogen) bound to mouse IgG (Abcam #131368) for 1 hour at 4° C. with rotation. FLAG-tagged constructs were then immunoprecipitated with Dynabeads Protein G beads coupled to mouse anti-FLAG M2 mAb (Sigma F3165) for 3 hours at 4° C. with rotation. Beads were washed 3× with 1 mL IP buffer and eluted by adding 2× NuPage LDS Sample Buffer (Thermo Fisher, diluted from 4× with PBS) to the beads and heating for 10 minutes at 70° C.
For LC-MS, anti-FLAG immunoprecipitation was performed with beads cross-linked to the anti-FLAG antibody and the proteins competitively eluted with FLAG peptide. Eluted protein samples were electrophoresed into a NuPage 4-12% Bis-Tris gel, excised, and processed by the Fred Hutchinson Cancer Research Center Proteomics Core. Samples were reduced, alkylated, digested with trypsin, desalted, and run on the Orbitrap Eclipse Tribid Mass Spectrometer (Thermo Fisher). Proteomics data were analyzed using Proteome Discoverer 2.4 against a Uniprot human database that included common contaminants using Sequest HT and Percolator for scoring. […] Proteins that were identified in at least one sample from both independent experiments with at least 2 PSMs in one sample were assigned to one of ten categories: 1, candidates; 2, cytoskeletal associated; 3, cytoskeletal; 4, ribosome/translation associated; 5, proteasome associated; 6, membrane or extracellular; ER, golgi, or vesicle associated; 8, lipid metabolism; 9, chaperones; 10, nuclear import or nuclear membrane associated. The proteins in category 1 were further investigated for interactions with DUX4.

Molecule | 4. + IFNG mix | 4. mL1dL2 + Dox + IFNG
RRBP1 (protein) MDIYDTQTLGVVVFGGFMVVSAIGIFLVSTFSMKETSYEEALANQRKEMAKTHHQKVEKKKKEKTVEKKGKTKKKEEKPNGKIPDHDPAPNVTVLLREPVRAPAVAVAPTPVQPPIIVAPVATVPAMPQEKLASSPKDKKKKEKKVAKVEPAVSSVVNSIQVLTSKAAILETAPKEVPMVVVPPVGAKGNTPATGTTQGKKAEGTQNQSKKAEGAPNQGRKAEGTPNQGKKTEGTPNQGKKAEGTPNQGKKAEGTPNQGKKAEGAQNQGKKVDTTPNQGKKVEGAPTQGRKAEGAQNQAKKVEGAQNQGKKAEGAQNQGKKGEGAQNQGKKAEGAQNQGKKAEGAQNQGKKAEGAQNQGKKAEGAQNQGKKAEGAQNQGKKAEGAQNQGKKVEGAQNQGKKAEGAQNQGKKAEGAQNQGKKAEGAQNQGKKAEGAQNQGKKAEGAQNQGKKAEGAQNQGKKAEGAQNQGKKVEGAQNQGKKAEGAQNQGKKAEGAQNQGKKAEGAQNQGQKGEGAQNQGKKTEGAQGKKAERSPNQGKKGEGAPIQGKKADSVANQGTKVEGITNQGKKAEGSPSEGKKAEGSPNQGKKADAAANQGKKTESASVQGRNTDVAQSPEAPKQEAPAKKKSGSKKKGEPGPPDADGPLYLPYKTLVSTVGSMVFNEGEAQRLIEILSEKAGIIQDTWHKATQKGDPVAILKRQLEEKEKLLATEQEDAAVAKSKLRELNKEMAAEKAKAAAGEAKVKKQLVAREQEITAVQARMQASYREHVKEVQQLQGKIRTLQEQLENGPNTQLARLQQENSILRDALNQATSQVESKQNAELAKLRQELSKVSKELVEKSEAVRQDEQQRKALEAKAAAFEKQVLQLQASHRESEEALQKRLDEVSRELCHTQSSHASLRADAEKAQEQQQQMAELHSKLQSSEAEVRSKCEELSGLHGQLQEARAENSQLTERIRSIEALLEAGQARDAQDVQASQAEADQQQTRLKELESQVSGLEKEAIELREAVEQQKVKNNDLREKNWKAMEALATAEQACKEKLLSLTQAKEESEKQLCLIEAQTMEALLALLPELSVLAQQNYTEWLQDLKEKGPTLLKHPPAPAEPSSDLASKLREAEETQSTLQAECDQYRSILAETEGMLRDLQKSVEEEEQVWRAKVGAAEEELQKSRVTVKHLEEIVEKLKGELESSDQVREHTSHLEAELEKHMAAASAECQNYAKEVAGLRQLLLESQSQLDAAKSEAQKQSDELALVRQQLSEMKSHVEDGDIAGAPASSPEAPPAEQDPVQLKTQLEWTEAILEDEQTQRQKLTAEFEEAQTSACRLQEELEKLRTAGPLESSETEEASQLKERLEKEKKLTSDLGRAATRLQELLKTTQEQLAREKDTVKKLQEQLEKAEDGSSSKEGTSV | 12 | 4
HNRNPM (protein) AAGVEAAAEVAATEIKMEEESGAPGVPSGNGAPGPKGEGERPAQNEKRKEKNIKRGGNRFEPYANPTKRYRAFITNIPFDVKWQSLKDLVKEKVGEVTYVELLMDAEGKSRGCAVVEFKMEESMKKAAEVLNKHSLSGRPLKVKEDPDGEHARRAMQKVMATTGGMGMGPGGPGMITIPPSILNNPNIPNEIIHALQAGRLGSTVFVANLDYKVGWKKLKEVFSMAGVVVRADILEDKDGKSRGIGTVTFEQSIEAVQAISMFNGQLLFDRPMHVKMDERALPKGDFFPPERPQQLPHGLGGIGMGLGPGGQPIDANHLNKGIGMGNIGPAGMGMEGIGFGINKMGGMEGPFGGGMENMGRFGSGMNMGRINEILSNALKRGEIIAKQGGGGGGGSVPGIERMGPGIDRLGGAGMERMGAGLGHGMDRVGSEIERMGLVMDRMGSVERMGSGIERMGPLGLDHMASSIERMGQTMERIGSGVERMGAGMGFGLERMAAPIDRVGQTIERMGSGVERMGPAIERMGLSMERMVPAGMGAGLERMGPVMDRMATGLERMGANNLERMGLERMGANSLERMGLERMGANSLERMGPAMGPALGAGIERMGLAMGGGGGASFDRAIEMERGNFGGSFAGSFGGAGGHAPGVARKACQIFVRNLPFDFTWKMLKDKFNECGHVLYADIKMENGKSKGCGVVKFESPEVAERACRMMNGMKLSGREIDVRIDRNA |  | 3
KRT71 (protein) MSRQFTCKSGAAAKGGFSGCSAVLSGGSSSSFRAGSKGLSGGFGSRSLYSLGGVRSLNVASGSGKSGGYGFGRGRASGFAGSMFGSVALGPVCPTVCPPGGIHQVTVNESLLAPLNVELDPEIQKVRAQEREQIKALNNKFASFIDKVRFLEQQNQVLETKWELLQQLDLNNCKNNLEPILEGYISNLRKQLETLSGDRVRLDSELRNVRDVVEDYKKRYEEEINKRTAAENEFVLLKKDVDAAYANKVELQAKVESMDQEIKFFRCLFEAEITQIQSHISDMSVILSMDNNRNLDLDSIIDEVRTQYEEIALKSKAEAEALYQTKFQELQLAAGRHGDDLKNTKNEISELTRLIQRIRSEIENVKKQASNLETAIADAEQRGDNALKDARAKLDELEGALHQAKEELARMLREYQELMSLKLALDMEIATYRKLLESEECRMSGEFPSPVSISIISSTSGGSVYGFRPSMVSGGYVANSSNCISGVCSVRGGEGRSRGSANDYKDTLGKGSSLSAPSKKTSR |  | 21
EEF1A1 (protein) GKEKTHINIVVIGHVDSGKSTTTGHLIYKCGGIDKRTIEKFEKEAAEMGKGSFKYAWVLDKLKAERERGITIDISLWKFETSKYYVTIIDAPGHRDFIKNMITGTSQADCAVLIVAAGVGEFEAGISKNGQTREHALLAYTLGVKQLIVGVNKMDSTEPPYSQKRYEEIVKEVSTYIKKIGYNPDTVAFVPISGWNGDNMLEPSANMPWFKGWKVTRKDGNASGTTLLEALDCILPPTRPTDKPLRLPLQDVYKIGGIGTVPVGRVETGVLKPGMVVTFAPVNVTTEVKSVEMHHEALSEALPGDNVGFNVKNVSVKDVRRGNVAGDSKNDPPMEAAGFTAQVIILNHPGQISAGYAPVLDCHTAHIACKFAELKEKIDRRSGKKLEDGPKFLKSGDAAIVDMVPGKPMCVESFSDYPPLGRFAVRDMRQTVAVGVIKAVDKKAAGAGKVTKSAQKAQKAK | 4 | 3
EEF1D (protein) MEAPLGSILSPCPGRAATGRAGTGRVGTGLRPPAVLQLCPLLAFYRCVRKMRSGKASCTLETVWEDKHKYEEAERRFYEHEATQAAASAQQLPAEGPAMNGPGQDDPEDADEAEAPDGGSRRDPRKSQDSRKPLQKKRKRSPKSGLGPADLALLGLSAERVWLDKSLFDQAESSYRQKLADVAAQAAWPPALAPWGLCTHGNQVACHHVTWGIWVNKSSFDQAERAFVEWSQALLLAPDGSRRQGTPNTGQQVAVPDLAHQPSPPVNGQPPLGSLQALVREVWLEKPRYDAAERGFYEALFDGHPPGKVRLQERAGLAEGARRGRRDRRGRNILGNKRAGLRRADGEAPSALPYCYFLQKDAEAPWLSKPAYDSAECRHHAAEALRVAWCLEAASLSHRPGPRSGLSVSSLRPNRKMATNFLAHEKIWFDKFKYDDAERRFYEQMNGPVAGASRQENGASVILRDIARARENIQKSLAGSSGPGASSGTSGDHGELVVRIASLEVENQSLRGVVQELQQAISKLEARLNVLEKSSPGHRATAPQTQHVSPMRQVEPPAKKPATPAEDDEDDDIDLFGSDNEEEDKEAAQLREERLRQYAEKKAKKPALVAKSSILLDVKPWDDETDMAQLEACVRSIQLDGLVWGASKLVPVGYGIRKLQIQCVVEDDKVGTDLLEEEITKFEEHVQSVDIAAFNKI |  | 7
MYL12A (protein) MDLTTTMSSKRTKTKTKKRPQRATSNVFAMFDQSQIQEFKEAFNMIDQNRDGFIDKEDLHDMLASLGKNPTDEYLDAMMNEAPGPINFTMFLTMFGEKLNGTDPEDVIRNAFACFDEEATGTIQEDYLRELLTTMGDRFTDEEVDELYREAPIDKKGNFNYIEFTRILKHGAKDKDD | 9 | 30
